In article PMC9775241, “One-Step Photochemical Immobilization of Aptamer on Graphene for Label-Free Detection of NT-proBNP”:

Experiments:
[1] = target: cTnI (cardiac troponin I) (UniProt P19429 2-210); test: graphene field-effect transistor (GFET) aptasensor; cTnI 3.5 ng/mL; no significant response; PBS (137 mM NaCl, 2.7 mM KCl, 10 mM phosphate) used for immobilization and blank; sensing buffer dilution, pH and temperature not given in material; aptamer on; settings: protein: commercial
NT-proBNP = NT-proBNP (UniProt P16860 27-102); test: graphene field-effect transistor (GFET) aptasensor; LOD 0.01 pg/mL, range 0.1-10^4 pg/mL; Langmuir KD calculated but value not in material; PBS (137 mM NaCl, 2.7 mM KCl, 10 mM phosphate) used for immobilization and blank; sensing buffer dilution, pH and temperature not given in material; aptamer on; settings: protein: commercial
Chain of NT-proBNP (P16860 27-102): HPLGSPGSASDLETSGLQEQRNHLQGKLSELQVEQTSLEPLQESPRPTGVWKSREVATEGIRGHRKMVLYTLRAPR

Chain of cTnI (cardiac troponin I) (P19429 2-210): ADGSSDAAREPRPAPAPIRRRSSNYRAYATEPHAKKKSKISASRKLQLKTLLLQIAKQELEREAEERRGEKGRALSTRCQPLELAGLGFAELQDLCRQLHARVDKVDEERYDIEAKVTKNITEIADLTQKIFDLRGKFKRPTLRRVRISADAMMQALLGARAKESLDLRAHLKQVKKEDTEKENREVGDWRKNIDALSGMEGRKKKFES

B1: azide-modified NT-proBNP aptamer (N20a in Fig. S3 legend) (ssDNA)
DNA: GGCAGGAAGACAAACAGGTCGTAGTGGAAACTGTCCACCGTAGACCGGTTATCTAGTGGTCTGTGGTGCTGT
modifications: 5'-NH2; 3'-azide (N3), photochemically coupled to graphene
- binding result [1]: no binding
- binding result (NT-proBNP): binds
